Biological target: wild-type PERK BiFC construct (pEZY BiFC pre-NV(CV)-PERK) (human) (UniProt Q9NZJ5)
Assay: split reporter

Sequence of UniProt Q9NZJ5 (Q9NZJ5 30-1116): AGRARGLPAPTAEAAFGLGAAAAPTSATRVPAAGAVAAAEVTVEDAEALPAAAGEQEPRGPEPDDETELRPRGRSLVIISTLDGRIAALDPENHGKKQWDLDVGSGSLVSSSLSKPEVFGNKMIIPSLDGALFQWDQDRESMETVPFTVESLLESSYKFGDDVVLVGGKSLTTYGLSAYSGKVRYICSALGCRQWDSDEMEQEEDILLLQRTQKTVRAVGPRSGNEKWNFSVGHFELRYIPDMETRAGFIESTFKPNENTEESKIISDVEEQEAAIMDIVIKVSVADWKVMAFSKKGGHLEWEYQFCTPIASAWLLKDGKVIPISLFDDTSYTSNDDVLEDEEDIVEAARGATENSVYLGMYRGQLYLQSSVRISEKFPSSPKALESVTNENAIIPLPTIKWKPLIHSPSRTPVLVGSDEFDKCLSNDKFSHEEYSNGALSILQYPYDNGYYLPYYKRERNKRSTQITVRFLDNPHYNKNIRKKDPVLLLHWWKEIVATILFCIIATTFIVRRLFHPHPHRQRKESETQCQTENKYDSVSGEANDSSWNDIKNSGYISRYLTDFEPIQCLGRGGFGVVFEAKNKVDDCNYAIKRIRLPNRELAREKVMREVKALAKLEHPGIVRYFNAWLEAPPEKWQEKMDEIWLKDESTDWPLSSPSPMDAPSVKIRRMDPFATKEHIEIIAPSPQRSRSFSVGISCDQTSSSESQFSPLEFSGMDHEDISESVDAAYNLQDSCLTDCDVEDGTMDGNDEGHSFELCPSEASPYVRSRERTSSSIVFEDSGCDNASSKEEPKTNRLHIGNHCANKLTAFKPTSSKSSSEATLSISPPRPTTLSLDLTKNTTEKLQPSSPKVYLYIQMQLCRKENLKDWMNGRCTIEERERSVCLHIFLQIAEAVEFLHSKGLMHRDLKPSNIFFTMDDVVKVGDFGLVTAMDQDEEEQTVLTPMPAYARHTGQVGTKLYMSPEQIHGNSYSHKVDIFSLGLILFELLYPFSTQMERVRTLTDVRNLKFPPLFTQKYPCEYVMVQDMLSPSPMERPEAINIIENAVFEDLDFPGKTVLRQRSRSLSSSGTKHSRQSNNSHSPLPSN

Row | BiFC fluorescent signal relative to wt CDNF and the other mutants | BiFC fluorescence intensity relative to the CDNF-IRE1α interaction | Substance
1 | 5 times lower |  | CDNF K122A BiFC construct (natural protein)
2 |  | 7 times higher | CDNF BiFC construct (pEZY BiFC pre-CDNF-NV(CV)) (from UniProt Q49AH0 25-187) (natural protein)
